The target in series [1] is T1, C. imbricata cHPL (catalase-related hydroperoxide lyase domain) (Capnella imbricata, UniProt W8JJ08).
T1 construct: gene AOS-LOXb; N-terminal cHPL domain of the HPL-LOX fusion protein, without the LOX domain; cHPL-His4 in pET11a; E. coli BL21(DE3), Ni-NTA; heme protein; monomer 45 kDa plus oligomers 440-670 kDa
The series is described as follows: RP-HPLC radiometric product analysis. In kind it is biochemical. As to conditions: 20 μM [1-14C]-AA-derived 8R-HpETE; labelled compound.

Substrate in series [2]: CCCCC/C=C\C/C=C\C=C\[C@@H](C/C=C\CCCC(=O)O)OO
As to the kind of experiment: purified protein. The class given is biochemical, Capnella imbricata. As to conditions: 50 mM Tris pH 8.0, 100 mM NaCl, 1 mM CaCl2, 20 °C, 5–50 μM substrate.

Numbering of substitutions follows the chain as printed. In names and notes the source's numbering stands.

T1 sequence (W8JJ08 entry or part of it): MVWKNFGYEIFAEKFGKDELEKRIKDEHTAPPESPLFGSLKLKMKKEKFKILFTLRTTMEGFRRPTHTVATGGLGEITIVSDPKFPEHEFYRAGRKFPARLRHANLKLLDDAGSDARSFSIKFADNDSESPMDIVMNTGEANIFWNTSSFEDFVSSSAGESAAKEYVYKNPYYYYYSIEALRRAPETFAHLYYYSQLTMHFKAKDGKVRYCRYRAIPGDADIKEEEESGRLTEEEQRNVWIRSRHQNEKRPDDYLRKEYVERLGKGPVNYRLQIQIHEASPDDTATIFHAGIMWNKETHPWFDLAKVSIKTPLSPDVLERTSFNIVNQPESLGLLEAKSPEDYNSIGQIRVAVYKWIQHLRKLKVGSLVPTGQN

On to `CCCCC/C=C\C/C=C\C=C\[C@@H](C/C=C\CCCC(=O)O)OO` [8R-HpETE], for which the “RP-HPLC radiometric product analysis” value in series [1] is “Wt cHPL catalyzes the formation of C8-oxo acid and C12 aldehyde”.

B1: C. imbricata cHPL (catalase-related hydroperoxide lyase domain) (Capnella imbricata; S177L/Y176N) (protein)
chain: MVWKNFGYEIFAEKFGKDELEKRIKDEHTAPPESPLFGSLKLKMKKEKFKILFTLRTTMEGFRRPTHTVATGGLGEITIVSDPKFPEHEFYRAGRKFPARLRHANLKLLDDAGSDARSFSIKFADNDSESPMDIVMNTGEANIFWNTSSFEDFVSSSAGESAAKEYVYKNPYYYYNLIEALRRAPETFAHLYYYSQLTMHFKAKDGKVRYCRYRAIPGDADIKEEEESGRLTEEEQRNVWIRSRHQNEKRPDDYLRKEYVERLGKGPVNYRLQIQIHEASPDDTATIFHAGIMWNKETHPWFDLAKVSIKTPLSPDVLERTSFNIVNQPESLGLLEAKSPEDYNSIGQIRVAVYKWIQHLRKLKVGSLVPTGQN
notes: N-terminal cHPL domain of the HPL-LOX fusion protein, without the LOX domain; cHPL-His4 in pET11a; E. coli BL21(DE3), Ni-NTA; heme protein; monomer 45 kDa plus oligomers 440-670 kDa
Consider B1, for which, in series [2], the Michaelis constant (Km) (as a rule, the substrate concentration at which the rate is half of its maximum) worked out at 3.9 ± 0.9 µM; the turnover number (kcat) (commonly the number of substrate molecules converted per active site and unit of time at saturation) stood at 218 ± 13.8 s⁻¹; the catalytic efficiency (kcat/Km) (commonly the turnover number divided by the Michaelis constant) is 5.6e+07 M⁻¹ s⁻¹.

B2: C. imbricata cHPL (catalase-related hydroperoxide lyase domain) (Capnella imbricata; F150L) (protein)
chain: B1 chain with F150L, N176Y, L177S
notes: as for B1
As for B2, in series [2], the Km worked out at 1.8 ± 0.4 µM, the kcat turned out to be 49.6 ± 1.5 s⁻¹ and the kcat/Km was 2.76e+07 M⁻¹ s⁻¹.

B3: C. imbricata cHPL (catalase-related hydroperoxide lyase domain) (Capnella imbricata; P65A) (protein)
chain: B1 chain with P65A, N176Y, L177S
notes: as for B1
Turning to B3, in series [2], the Km was 15.3 ± 2.5 µM, the turnover number (kcat) turned out to be 40.3 ± 2.5 s⁻¹ and the kcat/Km was 2.6e+06 M⁻¹ s⁻¹.

B4: C. imbricata cHPL (catalase-related hydroperoxide lyase domain) (Capnella imbricata; R56G) (protein)
chain: B1 chain with R56G, N176Y, L177S
notes: as for B1
Regarding B4, in series [2], the Km came to 19.0 ± 4.0 µM, the kcat was found to be 304 ± 22.8 s⁻¹ and the kcat/Km was 1.6e+07 M⁻¹ s⁻¹.

B5: C. imbricata cHPL (catalase-related hydroperoxide lyase domain) (Capnella imbricata; E60K/M59L) (protein)
chain: B1 chain with M59L, E60K, N176Y, L177S
notes: as for B1
In the case of B5, in series [2], the Michaelis-Menten constant (Km) amounted to 7.3 ± 1.9 µM, the turnover number (kcat) worked out at 7.5 ± 0.6 s⁻¹ and the specificity constant (kcat/Km) worked out at 1e+06 M⁻¹ s⁻¹.

B6: C. imbricata cHPL (catalase-related hydroperoxide lyase domain) (Capnella imbricata; I357V) (protein)
chain: B1 chain with N176Y, L177S, I357V
notes: as for B1
In the case of B6, in series [2], the Km amounted to 5.0 ± 1.0 µM, the kcat worked out at 63.9 ± 3.2 s⁻¹ and the kcat/Km came out at 1.28e+07 M⁻¹ s⁻¹.

B7: C. imbricata cAOS (cAOS-H4 domain) (Capnella imbricata) (protein)
chain: MTWKNFGFDIFAERFGKDKLEKRIKDERTPPPDSPVFGGLTLRMKIEKFKTLFTLGTTLKGFRRATHTVGTGGIGEVTVVDDPKFPEHEFFKAGRKLPVRLRHANLKYPDDAGADARSFSIKFSDNDSESPLDIVMNTGEANIFWHTSSLEDFVPVKEGDSAKEYVYKNPYYYYNLVEALRRAPNTFAHLYYYSQVTMHFKAKDGKERYCRYRAIPGDVDIKEEEESGRLTEEEQRNIWTFSRYETEKRPDDYLRKEYVERLKKGPVNYRLQIQIHDVSPNDTATIFHAGILWDKETHPWFDLAKVSITTPMSPDVLERTNFNIVNQPKSLGLLDAKSPEDYNSIGQIRVSVYNWVQHLRKLKLGSLIPAGQN
notes: N-terminal cAOS domain of the AOS-LOX fusion protein, without the LOX domain; cAOS-H4 (His4 tag) in pET11a; E. coli BL21(DE3), Ni-NTA; heme protein; monomer
As for B7, in series [2], the Km was 46.6 ± 9.0 µM, the turnover number (kcat) amounted to 1840 ± 196 s⁻¹ and the kcat/Km was 3.94e+07 M⁻¹ s⁻¹.

B8: C. imbricata cAOS (cAOS-H4 domain) (Capnella imbricata; L150F) (protein)
chain: B7 chain with L150F
notes: as for B7
With B8, in series [2], the Michaelis-Menten constant (Km) stood at 6.7 ± 1.0 µM, the kcat is 203 ± 8.1 s⁻¹ and the kcat/Km stood at 3.03e+07 M⁻¹ s⁻¹.

These data come from article PMC5617202, “Structural and functional insights into the reaction specificity of catalase-related hydroperoxide lyase: A shift from lyase activity to allene oxide synthase by site-directed mutagenesis” (PLoS ONE, 2017).
